We go through 10 molecules from publication doi:10.1101/2020.10.14.340026 (bioRxiv, 2020).

B1: EBOV-442 mAb (antibody, V domains shown)
VH: EVQLVESGGGLVKPGGSLRLSCTGSGGTGFTFKYAGMSWVRQAPGKGPEWIGRIKSRIDGGTTDYAAPVKDRFIVSRDDSRNTLYLQMNSLKTEDTAVYYCATGSGKGPSASFGESYYYYDFINVWGKGTTVTVSS
VL: ESVLTQSPGTLSLSPGERATLSCRASQSISRKYLAWYQQKPGQAPRLLIYGSSSRATGIPDRFSGSGSGTDFTLTISRLEPEDFAVYYCHQYESSPWTFGQGTKVEIK
notes: IgG1; source: ExpiCHO, transiently transfected, purified (HiTrap MabSelect Sure)
B2: EBOV-515 mAb, Alexa Fluor 647-labeled (antibody, V domains shown)
VH: QVQLQESGPGLVKPSQTLSLTCTVSGGSINSAGYYWTWIRQHPGKGLEWIGYIDYTGRTYYNPSLESRVIISIDTSKNHFSLRLTSVSAADTAVYYCARESSWVSELGRDNWGQGTLVTVSS
VL: EIVMTQSPATLPVSPGEGATLSCRASQSVFTNLAWYQQKPGQAPRLLIYDASTRATGIPARFSGSGSGTEFTLTISSLQSEDFAVYYCQQYNNWPRTYGQGTRVEVK
B3: EBOV-437 mAb (antibody, V domains shown)
VH: QVQLVQSGAEVKKPGSSVKVSCKASGGTFSRDIFSWVRQAPGQGLEWMGGIIPIFGTANYAQKFQGRVTITADKSTSTVFMELSGLRSEDTAVYFCARGPPLRGERSWFGESEKYDYFYMDVWGKGTTVTVSS
VL: QIVLTQSPGTLSLSPGERATLSCRASQSVSNSYLAWYQQKPGQAPRLLIYGASSRATGIPDRFSGSGSGTDFTLSISRLEPEDFAVYYCQQYGTSPCTFGQGTKLEIK
notes: as for B1
B4: BDBV-329 mAb (antibody, V domains shown)
VH: QVQLVQSGAEVKKPGSSVKVSCKASGGTFDTYAISWVRQAPGQGLEWMGGIIPVLGIVDYAQKFQGRVTITAAKFTNIAYMELSSLRSEDAAVYYCARGLRSLSPRGQEGPTPAPGWRRAQYHYYYMDVWGTGTLVTVSS
VL: EIVMTQSPGTLSLSPGERATLSCRASQSVSSNYLAWYQQKPGQAPRLLIYGASSRATGIPDRFSGSGSGPDFTLTISRLEPEDFAVYYCQQYGSSPGTFGGGTKVEIK
notes: as for B1
B5: EBOV-296 mAb (antibody, V domains shown)
VH: QVQLVESGPGLVKPSQTLSLICTVSGGSISSGDFYWSWIRQPPGKGLEWIGFFYYSGITYYNPSLKSRVSISRDTSTNQFSLKLRSVTAADTAVYYCARVRGGRITLGQGDMYYYSGMDVWGQGTLVTVSS
VL: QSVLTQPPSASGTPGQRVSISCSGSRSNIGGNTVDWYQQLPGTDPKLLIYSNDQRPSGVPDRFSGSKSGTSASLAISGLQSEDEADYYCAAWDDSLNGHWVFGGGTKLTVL
B6: EBOV-293 mAb (antibody, V domains shown)
VH: QVQLVQSGAEVKKPGSSVKVSCKASGGTFIDYTYNWVRQAPGQGLVWMGRVVPGLGLSSYAQQFEDRVTITAAKSTSTVYMELRGLTSEDTAMYYCARDTASFGWLPFAFWGQGTLVTVSS
VL: QTVMTQSPGTLSLSPGERATLSCGVSQSISSTYFAWYQQKVGQAPRLLIYGASNRASGIPDRFSGSASGTDFTLTISRVEPEDFAVYYCQQYGSSPTFGQGTRLEIK
B7: BDBV-43 mAb (antibody, V domains shown)
VH: QVQLVQSGAEVKKPGSSVKVSCRASGDSFSRKYGISWVRQAPGQGFEWMGTIMPIVGLTTSAQKFQGRVTITADKSTSTAHMELNSLTSEDTAIYYCARDEIIGARPHWFDSWGQGTLVTVSS
VL: EIVMTQSPAIMSVSPGKRATLSCRASQSVSSNLAWYQRKPGQAPRLLIYGSSTRATGIPARFSGSGSGTEFTLTISSLQSEDFAVYYCLQYYNWPRTFGQGTKVEIK
notes: source: HEK-293F, transiently transfected, purified (mAb Select, SEC)
B8: EBOV-548 mAb (antibody, V domains shown)
VH: QVQVEESGGGVVQPGGSLRLSCAASGFMFSNYGMHWVRQAPGKGLEWMAFIRYDDSKKFYADSVKGRFTISRDNSKNTLYLQMNSLRAEDTALYYCAKELLQVYTSAWGEGHSYYYALDVWGLGTAVTVSS
VL: DIQMTQSPSSVSASVGDRVTITCRASQDISNWLAWYQQKPGKAPELLIYTASILQSGVSSRFSGSGSGTDFTLTISSLQPEDSATYYCQQGKSFPYTFGQGTKLEIK
B9: BDBV-289 mAb (antibody, V domains shown)
VH: QVQLVQSGAEVKKPGSSVKVSCKASGATFGSDTVTWVRQAPGQGLEWMGGIIPFFGEANYAQRFQGRVTITADKSTNTAYMELSSLRSEDTAVYFCARQINEMATFGEIHYYTYMDVWGQGTLVTVSS
VL: GSELTQDPAVSVALGQTVRITCQGDSLRNYYASWYQQKPRQAPVLVFYGKNNRPSGIPDRFSGSSSGNTASLTISGAQAEDEADYYCNSRDSSSNHLVFGGGTKLTVL
notes: as for B7
B10: EBOV-237 mAb (antibody, V domains shown)
VH: QVQLQESGPGLVKPSGTLSLTCAVSGGSISNGIWWSWVRQPPGKGLEWIGEIYHSGSTNYSPSLKSRVTISLDKSKNQFSLKLNSVTAADTAVYYCARAPSQFDFSDWLVPQGAMFRGHYIDYWGQGTLVTVSS
VL: not shown
notes: as for B1

For the first assay, the target named is Cleaved EBOV GP (GPCL) displayed on Jurkat cells (Zaire ebolavirus, Makona (A0A0E3TM45), UniProt A0A0E3TM45, strain). The assay can be described thus: flow cytometry on cells. The settings on record: one partner purified.
In the case of B1, the binding result is on record as “binds”.
Same read-out and setting: the value for B2 was “binds”.

In another assay the target is T1, EBOV sGP (Mayinga) (Zaire ebolavirus (strain Mayinga-76) …, UniProt P60170).
T1 construct: source: HEK-293F, transiently transfected, purified (Strep-Tactin, SEC S200 increase)
The assay can be described thus: ELISA. Particulars: both partners purified.
Consider B3, for which the binding result is on record as “binds”.
Take B4: the binding result is on record as “binds”.
The same measure, in the same setting: the same measure for B1: “binds”; for B5: “binds”; for B6: “binds”.
On the same count and under the same terms, the value for B7 was “binds”; that for B8 was “binds”.
Take B9: the binding result was “binds”.
Still for that read-out and setting: the same measure for B10: “binds”.
